Measured values published in PMC6881253, “The PCNA interaction motifs revisited: thinking outside the PIP-box” (Cellular and Molecular Life Sciences: CMLS, 2019).
Blank lines part the entries; values can stand above or below the binder they belong to.

Assays:
Conditions in all cases: both partners purified
[1] = target: T1, N-terminally His6-tagged human PCNA (proliferating cell nuclear antigen) (human, UniProt P12004 1-261); assay: ITC; ITC200; PCNA injected into the peptide; 10 mM HEPES, 150 mM NaCl, 1 mM EDTA, 1 mM TCEP, pH 7.4; 25 °C; single binding site model; triplicates
T1 construct: Proliferating cell nuclear antigen, human; The tag is used for capture in SPR; source: E. coli BL21(DE3), purified (Ni-NTA, SEC)

[2] = target: T1, N-terminally His6-tagged human PCNA …; assay: SPR; Biacore T200, single-cycle; His6-PCNA captured by anti-His antibody coupled to a CM5 chip, peptides injected (five twofold dilutions); 10 mM HEPES, 150 mM NaCl, 0.05% P20, pH 7.4; 25 °C; kinetic fit for p21, steady-state fit for the other peptides
[3] = target: T1, N-terminally His6-tagged human PCNA …; assay: as above; remark: listed apart in the source
[4] = target: T1, N-terminally His6-tagged human PCNA …; assay: ITC; ITC200; PCNA injected into the peptide; 10 mM HEPES, 150 mM NaCl, 1 mM EDTA, 1 mM TCEP, pH 7.4; 25 °C; single binding site model; triplicates; remark: listed apart in the source

T1 sequence (P12004 whole entry): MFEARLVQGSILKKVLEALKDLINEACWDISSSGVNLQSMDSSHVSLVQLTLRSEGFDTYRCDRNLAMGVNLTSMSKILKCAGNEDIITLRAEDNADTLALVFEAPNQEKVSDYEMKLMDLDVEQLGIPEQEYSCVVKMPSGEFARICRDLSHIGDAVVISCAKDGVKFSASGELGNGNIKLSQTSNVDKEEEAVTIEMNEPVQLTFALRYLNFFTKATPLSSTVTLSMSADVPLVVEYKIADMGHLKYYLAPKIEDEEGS

B1: chimeric peptide comprising the Fen1 motif and the flanking regions of p21 (Ac-RKRRQGRLDDFFHSKRRL-NH2) (peptide)
peptide: Ac-RKRRQGRLDDFFHSKRRL-NH2
notes: PIP-box motif of flap endonuclease 1 (FEN1), human; also called p21 flanks grafted to Fen1; source: peptide, > 95% purity
Kd [1]: 730 nM

B2: MSH6 peptide (Ac-RQSTLYSFFPKSPAL-NH2) (peptide)
peptide: Ac-RQSTLYSFFPKSPAL-NH2
notes: DNA mismatch repair protein MSH6, human, canonical PIP-box at the very N-terminus; source: peptide, > 95% purity
Kd [2]: 3000 ± 50 nM | Kd [3]: 2900 nM

B3: p21^140–157,Q144A (Ac-RKRRATSMTDFYHSKRRL-NH2) (peptide)
peptide: Ac-RKRRATSMTDFYHSKRRL-NH2
notes: also called p21 peptide variant with Q at the first position mutated to alanine; source: peptide, > 95% purity
Kd [1]: 1300 nM

B8: FEN1 peptide (Ac-TQGRLDDFFKVTGSL-NH2) (peptide)
peptide: Ac-TQGRLDDFFKVTGSL-NH2
notes: Flap endonuclease 1 (FEN1), human, canonical PIP-box; source: peptide, > 95% purity
Kd [3]: 45000 nM

The remaining lines, values ahead:

Kd [1]: 27 nM
B4: p21^140–157 peptide (peptide)
peptide: Ac-RKRRQTSMTDFYHSKRRL-NH2
notes: also called extended peptide; source: peptide, > 95% purity

Kd [1]: 6.4 nM
B5: p21^140–164 peptide (Ac-[residues removed]-NH2) (peptide)
peptide: RKRRQTSMTDFYHSKRRLIFSKRKP
modifications: N-terminally acetylated, C-terminally amidated
notes: called p21^140–163 in the results and the ITC methods; the name p21^140–163 is used elsewhere for the same peptide; also called p21^140–163; source: peptide, > 95% purity

Kd [3]: 11000 nM
B6: synthetic peptide harboring an APIM (Ac-MDRWLVKW-NH2) (peptide)
peptide: Ac-MDRWLVKW-NH2
notes: also called APIM peptide; source: synthetic peptide, > 95% purity

Kd [4]: 67 nM | dH [4]: -55 kcal/mol | koff [2]: 0.14 ± 0.0003 s⁻¹ | kon [2]: 1.7e+06 M⁻¹ s⁻¹ | stoichiometry N [2]: 3 ligands per PCNA trimer | Kd [3]: 80 nM
B7: p21^143–157 peptide (Ac-RQTSMTDFYHSKRRL-NH2) (peptide)
peptide: Ac-RQTSMTDFYHSKRRL-NH2
notes: also called initial p21 peptide; p21 peptide; source: peptide, > 95% purity
